Source: PMC7216292, “A Multivalent ICAM-1 Binding Nanoparticle which Inhibits ICAM-1 and LFA-1 Interaction Represents a New Tool for the Investigation of Autoimmune-Mediated Dry Eye” (International Journal of Molecular Sciences, 2020)

What was measured:
[1] = target: mouse ICAM-1 (endogenous) (mouse (endogenous in bEnd.3, NOD LGACs)) (UniProt P13597)
[2] = target: mouse ICAM-1 (endogenous) (mouse (endogenous in bEnd.3, NOD LGACs)) (UniProt P13597); remark: listed apart in the source
[3] = target: mouse ICAM-1 (endogenous) (mouse (endogenous in bEnd.3, NOD LGACs), UniProt P13597 28-537); test: cell-based or functional assay
[4] = target: the molecule itself; test: dynamic light scattering; 25 µM in PBS, pH 7.4, heated from 10 °C to 37 °C; assembly of monomers into nanoparticles above Tt1

mouse ICAM-1 (endogenous) (mouse (endogenous in bEnd.3, NOD LGACs)), sequence (P13597 28-537): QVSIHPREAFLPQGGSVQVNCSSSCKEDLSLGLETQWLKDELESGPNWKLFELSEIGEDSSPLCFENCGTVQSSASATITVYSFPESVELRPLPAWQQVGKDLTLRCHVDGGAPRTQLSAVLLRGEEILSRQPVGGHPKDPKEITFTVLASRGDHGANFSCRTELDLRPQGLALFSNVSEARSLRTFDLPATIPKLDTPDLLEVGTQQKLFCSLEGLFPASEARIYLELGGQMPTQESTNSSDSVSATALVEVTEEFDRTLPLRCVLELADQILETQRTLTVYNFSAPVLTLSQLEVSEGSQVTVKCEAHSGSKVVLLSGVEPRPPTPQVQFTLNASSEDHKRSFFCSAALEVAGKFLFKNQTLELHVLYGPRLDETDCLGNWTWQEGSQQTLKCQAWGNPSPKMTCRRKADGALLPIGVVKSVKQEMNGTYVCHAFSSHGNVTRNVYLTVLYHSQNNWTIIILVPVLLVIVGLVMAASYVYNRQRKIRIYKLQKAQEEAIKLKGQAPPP
mouse ICAM-1 (endogenous), sequence (P13597 28-537): as above

adhesion of fluorescently labelled splenocytes to TNF-α-induced bEnd.3 cells in the presence of 100 µM SI (negative control), percent of the control without ELP, plate reader [1] [%]	splenocyte binding to TNF-α-induced bEnd.3 cells in the presence of 100 µM SI (negative control), percent of the control without ELP, flow cytometry [1] [%]	proliferation of CFSE-labelled mouse CD4+ T-cells stimulated with MCC-loaded CH27 cells, in the presence of 100 µM SI (control), 5 days, percent of the untreated mixture [2] [%]	IC50 of inhibition of adhesion of PMA-activated, CFSE-labelled mouse splenocytes (LFA-1) to TNF-α-induced bEnd.3 cells (ICAM-1), flow cytometry, IBP-SI 10-150 µM, 45 min, 37 °C [3] [µM]	IC50 of inhibition of adhesion of PMA-activated, CFSE-labelled mouse splenocytes (LFA-1) to TNF-α-induced bEnd.3 cells (ICAM-1), fluorescence plate reader, IBP-SI 10-150 µM, 45 min, 37 °C [3] [µM]	Molecule	binding result [4]
76.2	86.9	91.2	–	–	lymphocyte function-associated antigen-1 (LFA-1) (from UniProt P24063 24-1162; P11835 24-771) (receptor)	–
–	–	–	62.7	81.2	IBP-SI (ICAM-1 binding peptide fused to the diblock elastin-like polypeptide S48I48) (designed binder, N-terminal leader; residue between IBP and the ELP; Unlabelled form; also called IBI-SI; source: E. coli BLR(DE3), purified by ELP-mediated phase separation) MGFEGFSFLAFEDFVSSIGVPGSGVPGSGVPGSGVPGSGVPGSGVPGSGVPGSGVPGSGVPGSGVPGSGVPGSGVPGSGVPGSGVPGSGVPGSGVPGSGVPGSGVPGSGVPGSGVPGSGVPGSGVPGSGVPGSGVPGSGVPGSGVPGSGVPGSGVPGSGVPGSGVPGSGVPGSGVPGSGVPGSGVPGSGVPGSGVPGSGVPGSGVPGSGVPGSGVPGSGVPGSGVPGSGVPGSGVPGSGVPGSGVPGSGVPGSGVPGSGVPGIGVPGIGVPGIGVPGIGVPGIGVPGIGVPGIGVPGIGVPGIGVPGIGVPGIGVPGIGVPGIGVPGIGVPGIGVPGIGVPGIGVPGIGVPGIGVPGIGVPGIGVPGIGVPGIGVPGIGVPGIGVPGIGVPGIGVPGIGVPGIGVPGIGVPGIGVPGIGVPGIGVPGIGVPGIGVPGIGVPGIGVPGIGVPGIGVPGIGVPGIGVPGIGVPGIGVPGIGVPGIGVPGIGVPGIGVPGIGY	binds
–	–	–	–	–	SI (diblock elastin-like polypeptide S48I48) (other, N-terminal leader; also called parent SI; source: E. coli BLR(DE3), purified by ELP-mediated phase separation) MGVPGSGVPGSGVPGSGVPGSGVPGSGVPGSGVPGSGVPGSGVPGSGVPGSGVPGSGVPGSGVPGSGVPGSGVPGSGVPGSGVPGSGVPGSGVPGSGVPGSGVPGSGVPGSGVPGSGVPGSGVPGSGVPGSGVPGSGVPGSGVPGSGVPGSGVPGSGVPGSGVPGSGVPGSGVPGSGVPGSGVPGSGVPGSGVPGSGVPGSGVPGSGVPGSGVPGSGVPGSGVPGSGVPGSGVPGSGVPGSGVPGIGVPGIGVPGIGVPGIGVPGIGVPGIGVPGIGVPGIGVPGIGVPGIGVPGIGVPGIGVPGIGVPGIGVPGIGVPGIGVPGIGVPGIGVPGIGVPGIGVPGIGVPGIGVPGIGVPGIGVPGIGVPGIGVPGIGVPGIGVPGIGVPGIGVPGIGVPGIGVPGIGVPGIGVPGIGVPGIGVPGIGVPGIGVPGIGVPGIGVPGIGVPGIGVPGIGVPGIGVPGIGVPGIGVPGIGVPGIGY	binds
